Patent publication US20190194291A1 (Hoffmann-La Roche, published 2019)
Changes are numbered by the printed parent chain.

B1: wild-type humanized anti-human CD19 antibody 8B8 (antibody, V domains shown)
VH: QVQLVQSGAEVKKPGASVKVSCKASGYTFTDYIMHWVRQAPGQGLEWMGYINPYNDGSKYTEKFNGRVTMTSDTSISTAYMELSRLRSDDTAVYYCARGTYYYGSALFDYWGQGTTVTVSS
VL: DIVMTQTPLSLSVTPGQPASISCKSSQSLENSNGNTYLNWYLQKPGQSPQLLIYRVSKRFSGVPDRFSGSGSGTDFTLKISRVEAEDVGVYYCLQLTHVPYTFGQGTKLEIK
B2: parental humanized clone 8B8 (Fab in bacterial supernatant) (Fab, V domains shown)
VH: B1 VH with N65Q
VL: B1 VL
notes: Soluble Fab with Flag tag from a phagemid, tested as bacterial supernatant; also called Parental 8B8; humanized parental clone 8B8
B3: humanized anti-human CD19 antibody clone 8B8-018 (antibody, V domains shown)
VH: B1 VH with N65Q
VL: B1 VL with S32P
B4: affinity-matured 8B8-derived clone 2B11 (Fab in bacterial supernatant) (Fab, V domains shown)
VH: B1 VH with N65Q, S105P, A106Q
VL: B1 VL with N31T, N33T, N35T, T97L, H98E, V99D
notes: Soluble Fab with Flag tag, tested as bacterial supernatant; also called 8B8-2B11
B5: Humanized variant 1 of T84.66 IgG (T84.66-LCHA) (antibody, V domains shown)
VH: QVQLVQSGAEVKKPGSSVKVSCKASGFNIKDTYMHWVRQAPGQGLEWMGRIDPANGNSKYVPKFQGRVTITADTSTSTAYMELSSLRSEDTAVYYCAPFGYYVSDYAMAYWGQGTLVTVSS
VL: EIVLTQSPATLSLSPGERATLSCRAGESVDIFGVGFLHWYQQKPGQAPRLLIYRASNRATGIPARFSGSGSGTDFTLTISSLEPEDFAVYYCQQTNEDPYTFGQGTKLEIK
notes: Tested as IgG

Key:
cyCD19 ECD = molecular target: T1, cyCD19 ECD (cynomolgus, UniProt A0A2K5W8L9 20-292); assay: binding to CD19 ECD, method not stated
T1 construct: extracellular domain; also called cynomolgus CD19 extracellular domain; cynomolgus CD19
T1 sequence: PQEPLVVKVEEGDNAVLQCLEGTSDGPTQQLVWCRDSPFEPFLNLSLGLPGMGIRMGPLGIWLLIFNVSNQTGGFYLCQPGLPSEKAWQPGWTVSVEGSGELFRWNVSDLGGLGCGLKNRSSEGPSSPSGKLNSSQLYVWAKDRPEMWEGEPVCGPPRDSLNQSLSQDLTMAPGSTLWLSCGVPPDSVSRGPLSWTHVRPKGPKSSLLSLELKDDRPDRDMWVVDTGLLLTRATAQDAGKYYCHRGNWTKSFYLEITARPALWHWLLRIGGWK

[1] = molecular target: T2, monomeric human CD19 antigen Fc(kih) fusion molecule (human, UniProt P0DOX5 223-449 = IgG part); assay: SPR (ProteOn XPR36): Fab from bacterial supernatant captured on anti-human Fab antibody, monomeric CD19-Fc 150-6 nM as analyte, 1:1 Langmuir fit
T2 construct: Heterodimeric Fc fusion with a single copy of the CD19 ectodomain; also called human CD19 Fc(kih); Recombinant human CD19
Method: In order to further characterize the ELISA-positive clones, the off-rate was measured by surface plasmon resonance and compared with the parental humanized clone 8B8.
For this experiment, 7000 RU of polyclonal anti-human Fab antibody were immobilized on all 6 channels of a GLM chip by Amine coupling (NaAcetate pH4.5, 25 μl/min, 240 s) (vertical orientation). Each antibody-containing bacterial supernatant was filtered and 2-fold diluted with PBS, and then injected for 360 s at 25 μl/minute to achieve immobilization levels of between 100 and 400 response units (RU) in vertical orientation. […] Regeneration was performed by two pulses of 10 mM glycine pH 1.5 and 50 mM NaOH for 30 s at 90 ul/min (horizontal orientation). Dissociation rate constants (koff) were calculated using a simple one-to-one Langmuir binding model in ProteOn Manager v3.1 software by simultaneously fitting the sensorgrams. […] The variable domains of the corresponding phagemids were sequenced.

[2] = molecular target: T3, human CD19 (antigen of Table 9, construct not stated) (human, UniProt P15391 20-291, limits assumed); assay: listed under the BIAcore KD; taken as half-life of the complex
T3 sequence: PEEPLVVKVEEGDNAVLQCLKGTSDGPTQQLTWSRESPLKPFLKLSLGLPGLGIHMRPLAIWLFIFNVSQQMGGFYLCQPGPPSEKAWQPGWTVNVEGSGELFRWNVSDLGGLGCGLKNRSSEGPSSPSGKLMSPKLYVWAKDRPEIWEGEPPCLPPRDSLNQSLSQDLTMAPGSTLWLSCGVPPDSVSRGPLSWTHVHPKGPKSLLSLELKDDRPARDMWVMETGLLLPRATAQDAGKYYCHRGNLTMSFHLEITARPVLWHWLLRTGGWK

huCD19 ECD = molecular target: T4, huCD19 ECD (human, UniProt P15391 20-291); assay: binding to CD19 ECD, method not stated
T4 construct: also called human CD19 extracellular domain
T4 sequence: T3 sequence

[3] = molecular target: T3, human CD19 (antigen of Table 9, …); assay: BIAcore (SPR), format not stated
[4] = molecular target: T5, human CEA expressed on MKN45 cells (human, UniProt P06731 35-685); assay: flow cytometry on CEA-expressing MKN45 cells, PE anti-human IgG Fc detection
T5 construct: also called CEA-expressing human gastric adenocarcinoma cells (MKN45)
T5 sequence: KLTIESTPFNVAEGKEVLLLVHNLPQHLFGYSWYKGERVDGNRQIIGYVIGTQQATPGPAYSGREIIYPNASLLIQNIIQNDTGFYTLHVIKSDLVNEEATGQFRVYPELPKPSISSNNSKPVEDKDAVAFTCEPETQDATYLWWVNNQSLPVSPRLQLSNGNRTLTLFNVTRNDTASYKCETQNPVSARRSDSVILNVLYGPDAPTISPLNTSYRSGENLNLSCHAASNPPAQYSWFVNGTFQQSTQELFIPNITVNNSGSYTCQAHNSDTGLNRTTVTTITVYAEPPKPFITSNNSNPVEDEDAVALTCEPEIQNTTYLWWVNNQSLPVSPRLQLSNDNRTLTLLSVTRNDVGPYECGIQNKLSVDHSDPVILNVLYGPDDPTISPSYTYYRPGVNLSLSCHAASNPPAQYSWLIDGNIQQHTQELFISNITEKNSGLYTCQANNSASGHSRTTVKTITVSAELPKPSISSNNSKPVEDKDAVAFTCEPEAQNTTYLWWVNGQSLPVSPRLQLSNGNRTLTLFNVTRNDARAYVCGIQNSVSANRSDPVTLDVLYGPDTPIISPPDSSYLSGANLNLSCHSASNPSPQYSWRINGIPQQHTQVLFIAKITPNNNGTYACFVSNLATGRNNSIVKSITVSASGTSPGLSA
Method: The binding of different humanized variants of T84.66 IgG was tested on CEA-expressing human gastric adenocarcinoma cells (MKN45, DSMZ ACC 409).
Cells were harvested, counted, checked for viability and re-suspended at 2×10⁶ cells/ml in FACS buffer (100 μl PBS 0.1% BSA). […] Binding curves and EC50 values were obtained and calculated using GraphPadPrism5.

Binder	EC50 (cyCD19 ECD) [µg/mL]	koff [1] [s⁻¹]	other results
B1	0.313	–	–
B2	–	0.000301	–
B3	0.255	–	t1/2 [2]: 43.6 min; EC50 (huCD19 ECD): 0.084 µg/mL; Kd [3]: 6 nM
B4	–	4.37e-06	–
B5	–	–	EC50 [4]: 1.5 µg/mL
